In this experiment the target is T1, mouse recombinant FGF R3(IIIc)-Fc (mouse, UniProt Q61851 21-369).
T1 construct: FGF receptor 3, (IIIc) form, mouse, extracellular domain fused to IgG-Fc portion; also called FGFR3 (murine); source: bought: R&D Systems
T1 sequence (looked up): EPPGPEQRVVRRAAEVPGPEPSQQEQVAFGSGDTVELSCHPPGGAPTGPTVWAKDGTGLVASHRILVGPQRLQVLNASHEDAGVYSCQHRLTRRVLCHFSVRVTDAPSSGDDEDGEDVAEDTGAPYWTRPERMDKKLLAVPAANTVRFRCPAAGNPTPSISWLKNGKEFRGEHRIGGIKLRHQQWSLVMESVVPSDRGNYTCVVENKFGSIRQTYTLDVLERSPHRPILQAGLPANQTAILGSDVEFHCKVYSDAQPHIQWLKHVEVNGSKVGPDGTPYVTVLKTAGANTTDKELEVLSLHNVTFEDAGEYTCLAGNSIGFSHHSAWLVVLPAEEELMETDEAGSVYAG
The experiment is described as follows: SPR; Biacore 2000; FGFR/Fc fusion proteins immobilised onto a CM5 sensor chip via prebound protein A (1,000 RUs); FGF2 injected with or without the RNA aptamer APT-F2; for FGFR1: receptor 100 nmol/l, FGF2 100 nmol/l, heparin 100 nmol/l, APT-F2 150 nmol/l. To be noted: both partners purified. A general note: SPR reads the build-up and loss of mass on a sensor chip optically.

The values that follow come from paper PMC5154475, “Dual Therapeutic Action of a Neutralizing Anti-FGF2 Aptamer in Bone Disease and Bone Cancer Pain” (Molecular Therapy, 2016).

B1: murine FGF2 (ligand, UniProt P15655 10-154, looked up)
chain: PALPEDGGAAFPPGHFKDPKRLYCKNGGFFLRIHPDGRVDGVREKSDPHVKLQLQAEERGVVSIKGVCANRYLAMKEDGRLLASKCVTEECFFFERLESNNYNTYRSRKYSSWYVALKRTGQYKLGSKTGPGQKAILFLPMSAKS
notes: Fibroblast growth factor 2, mouse, recombinant; also called mouse FGF2; source: bought: PEPROTECH
B1: the binding result is reported as “binds”.
